Measurements reported in patent publication US20210261648A1 (published 2021).

B1: IL6R-BP086/IL6R-L (antibody, human IgG1, kappa)
heavy: QVQLQESGPGLVKPSETLSLTCAVSGHSISHDHAWSWVRQPPGEGLEWIGFISYSGITNYNPSLQGRVTISRDNSKNTLYLQMNSLRAEDTAVYYCARSLARTTAMDYWGEGTLVTVSSASTKGPSVFPLAPSSKSTSGGTAALGCLVKDYFPEPVTVSWNSGALTSGVHTFPAVLQSSGLYSLSSVVTVPSSSLGTQTYICNVNHKPSNTKVDKKVEPKSCDKTHTCPPCPAPELLGGDSVFLFPPKPKDTLMISRTPEVTCVVVDVSHEDPEVKFNWYVDGVEVHNAKTKPREEQYNSTYRVVSVLTVLHQDWLNGKEYKCKVSNAALPKPIEKTISKAKGQPREPQVYTLPPSRDELTKNQVSLTCLVKGFYPSDIAVEWESNGQPENNYKTTPPVLDSDGSFFLYSKLTVDKSRWQQGNVFSCSVMHEALHNHYTQESLSLSP
light: not shown
B2: IL6R-BP129/IL6R-L (antibody, human IgG1, kappa)
heavy: QVQLQESGPGLVKPSETLSLTCAVSGHSISHDHAWSWVRQPPGEGLEWIGFISYSGITNYNPSLQGRVTISRDNSKNTLYLQMNSLRAEDTAVYYCARSLARTTAMDYWGEGTLVTVSSASTKGPSVFPLAPSSKSTSGGTAALGCLVKDYFPEPVTVSWNSGALTSGVHTFPAVLQSSGLYSLSSVVTVPSSSLGTQTYICNVNHKPSNTKVDKKVEPKSCDKTHTCPPCPAPDLLGGDSVFLFPPKPKDTLMISRTPEVTCVVVDVSHEDPEVKFNWYVDGVEVHNAKTKPREEQDNSTYRVVSVLTVLHQDWLNGKEYKCKVSNKALPKPIEKTISKAKGQPREPQVYTLPPSRDELTKNQVSLTCLVKGFYPSDIAVEWESNGQPENNYKTTPPVLDSDGSFFLYSKLTVDKSRWQQGNVFSCSVMHEALHNHYTQESLSLSP
light: not shown
B3: IL6R-BP132/IL6R-L (antibody, human IgG1, kappa)
heavy: QVQLQESGPGLVKPSETLSLTCAVSGHSISHDHAWSWVRQPPGEGLEWIGFISYSGITNYNPSLQGRVTISRDNSKNTLYLQMNSLRAEDTAVYYCARSLARTTAMDYWGEGTLVTVSSASTKGPSVFPLAPSSKSTSGGTAALGCLVKDYFPEPVTVSWNSGALTSGVHTFPAVLQSSGLYSLSSVVTVPSSSLGTQTYICNVNHKPSNTKVDKKVEPKSCDKTHTCPPCPAPDLLGGDSVFLFPPKPKDTLMISRTPEVTCVVVDVSHEDPEVKFNWYVDGVEVHNAKTKPREEQYNSTYRVVSVLTVLHQDWLNGKEYKCKVSNAALPKPIEKTISKAKGQPREPQVYTLPPSRDELTKNQVSLTCLVKGFYPSDIAVEWESNGQPENNYKTTPPVLDSDGSFFLYSKLTVDKSRWQQGNVFSCSVMHEALHNHYTQESLSLSP
light: not shown
B4: IL6R-BP133/IL6R-L (antibody, human IgG1, kappa)
heavy: QVQLQESGPGLVKPSETLSLTCAVSGHSISHDHAWSWVRQPPGEGLEWIGFISYSGITNYNPSLQGRVTISRDNSKNTLYLQMNSLRAEDTAVYYCARSLARTTAMDYWGEGTLVTVSSASTKGPSVFPLAPSSKSTSGGTAALGCLVKDYFPEPVTVSWNSGALTSGVHTFPAVLQSSGLYSLSSVVTVPSSSLGTQTYICNVNHKPSNTKVDKKVEPKSCDKTHTCPPCPAPDYLGGDSVFLFPPKPKDTLMISRTPEVTCVVVDVSHEDPEVKFNWYVDGVEVHNAKTKPREEQYNSTYRVVSVLTVLHQDWLNGKEYKCKVSNKALPKPIEKTISKAKGQPREPQVYTLPPSRDELTKNQVSLTCLVKGFYPSDIAVEWESNGQPENNYKTTPPVLDSDGSFFLYSKLTVDKSRWQQGNVFSCSVMHEALHNHYTQESLSLSP
light: not shown
B5: IL6R-BP143/IL6R-L (antibody, human IgG1, kappa)
heavy: QVQLQESGPGLVKPSETLSLTCAVSGHSISHDHAWSWVRQPPGEGLEWIGFISYSGITNYNPSLQGRVTISRDNSKNTLYLQMNSLRAEDTAVYYCARSLARTTAMDYWGEGTLVTVSSASTKGPSVFPLAPSSKSTSGGTAALGCLVKDYFPEPVTVSWNSGALTSGVHTFPAVLQSSGLYSLSSVVTVPSSSLGTQTYICNVNHKPSNTKVDKKVEPKSCDKTHTCPPCPAPEYLGGDSVFLFPPKPKDTLMISRTPEVTCVVVDVSHEDPEVKFNWYVDGVEVHNAKTKPREEQYNSTYRVVSVLTVLHQDWLNGKEYKCKVSNAALPAPIEKTISKAKGQPREPQVYTLPPSRDELTKNQVSLTCLVKGFYPSDIAVEWESNGQPENNYKTTPPVLDSDGSFFLYSKLTVDKSRWQQGNVFSCSVMHEALHNHYTQESLSLSP
light: not shown
B6: IL6R-BP144/IL6R-L (antibody, human IgG1, kappa)
heavy: QVQLQESGPGLVKPSETLSLTCAVSGHSISHDHAWSWVRQPPGEGLEWIGFISYSGITNYNPSLQGRVTISRDNSKNTLYLQMNSLRAEDTAVYYCARSLARTTAMDYWGEGTLVTVSSASTKGPSVFPLAPSSKSTSGGTAALGCLVKDYFPEPVTVSWNSGALTSGVHTFPAVLQSSGLYSLSSVVTVPSSSLGTQTYICNVNHKPSNTKVDKKVEPKSCDKTHTCPPCPAPELLGDDSVFLFPPKPKDTLMISRTPEVTCVVVDVSHEDPEVKFNWYVDGVEVHNAKTKPREEQYNSTYRVVSVLTVLHQDWLNGKEYKCKVSNAALPAPIEKTISKAKGQPREPQVYTLPPSRDELTKNQVSLTCLVKGFYPSDIAVEWESNGQPENNYKTTPPVLDSDGSFFLYSKLTVDKSRWQQGNVFSCSVMHEALHNHYTQESLSLSP
light: not shown
B7: IL6R-BP176/IL6R-L (antibody, human IgG1, kappa)
heavy: QVQLQESGPGLVKPSETLSLTCAVSGHSISHDHAWSWVRQPPGEGLEWIGFISYSGITNYNPSLQGRVTISRDNSKNTLYLQMNSLRAEDTAVYYCARSLARTTAMDYWGEGTLVTVSSASTKGPSVFPLAPSSKSTSGGTAALGCLVKDYFPEPVTVSWNSGALTSGVHTFPAVLQSSGLYSLSSVVTVPSSSLGTQTYICNVNHKPSNTKVDKKVEPKSCDKTHTCPPCPAPDLLGGDSVFLFPPKPKDTLMISRTPEVTCVVVDVSHEDPEVKFNWYVDGVEVHNAKTKPREEQYNSTYRVVSVLTVLHQDWLNGKEYKCKVSNDALPKPIEKTISKAKGQPREPQVYTLPPSRDELTKNQVSLTCLVKGFYPSDIAVEWESNGQPENNYKTTPPVLDSDGSFFLYSKLTVDKSRWQQGNVFSCSVMHEALHNHYTQESLSLSP
light: not shown
B8: IL6R-BP182/IL6R-L (antibody, human IgG1, kappa)
heavy: QVQLQESGPGLVKPSETLSLTCAVSGHSISHDHAWSWVRQPPGEGLEWIGFISYSGITNYNPSLQGRVTISRDNSKNTLYLQMNSLRAEDTAVYYCARSLARTTAMDYWGEGTLVTVSSASTKGPSVFPLAPSSKSTSGGTAALGCLVKDYFPEPVTVSWNSGALTSGVHTFPAVLQSSGLYSLSSVVTVPSSSLGTQTYICNVNHKPSNTKVDKKVEPKSCDKTHTCPPCPAPDLLGGDSVFLFPPKPKDTLMISRTPEVTCVVVDVSHEDGEVKFNWYVDGVEVHNAKTKPREEQDNSTYRVVSVLTVLHQDWLNGKEYKCKVSNKALPKPIEKTISKAKGQPREPQVYTLPPSRDELTKNQVSLTCLVKGFYPSDIAVEWESNGQPENNYKTTPPVLDSDGSFFLYSKLTVDKSRWQQGNVFSCSVMHEALHNHYTQESLSLSP
light: not shown
B9: IL6R-BP184/IL6R-L (antibody, human IgG1, kappa)
heavy: QVQLQESGPGLVKPSETLSLTCAVSGHSISHDHAWSWVRQPPGEGLEWIGFISYSGITNYNPSLQGRVTISRDNSKNTLYLQMNSLRAEDTAVYYCARSLARTTAMDYWGEGTLVTVSSASTKGPSVFPLAPSSKSTSGGTAALGCLVKDYFPEPVTVSWNSGALTSGVHTFPAVLQSSGLYSLSSVVTVPSSSLGTQTYICNVNHKPSNTKVDKKVEPKSCDKTHTCPPCPAPDLLGGDSVFLFPPKPKDTLMISRTPEVTCVVVDVSHEDGEVKFNWYVDGVEVHNAKTKPREEQYNSTYRVVSVLTVLHQDWLNGKEYKCKVSNKALPKPIEKTISKAKGQPREPQVYTLPPSRDELTKNQVSLTCLVKGFYPSDIAVEWESNGQPENNYKTTPPVLDSDGSFFLYSKLTVDKSRWQQGNVFSCSVMHEALHNHYTQESLSLSP
light: not shown
B10: IL6R-BP188/IL6R-L (antibody, human IgG1, kappa)
heavy: QVQLQESGPGLVKPSETLSLTCAVSGHSISHDHAWSWVRQPPGEGLEWIGFISYSGITNYNPSLQGRVTISRDNSKNTLYLQMNSLRAEDTAVYYCARSLARTTAMDYWGEGTLVTVSSASTKGPSVFPLAPSSKSTSGGTAALGCLVKDYFPEPVTVSWNSGALTSGVHTFPAVLQSSGLYSLSSVVTVPSSSLGTQTYICNVNHKPSNTKVDKKVEPKSCDKTHTCPPCPAPDLLGDDSVFLFPPKPKDTLMISRTPEVTCVVVDVSDEDGEVKFNWYVDGVEVHNAKTKPREEQYNSTYRVVSVLTVLHQDWLNGKEYKCKVSNKALPKPIEKTISKAKGQPREPQVYTLPPSRDELTKNQVSLTCLVKGFYPSDIAVEWESNGQPENNYKTTPPVLDSDGSFFLYSKLTVDKSRWQQGNVFSCSVMHEALHNHYTQESLSLSP
light: not shown
B11: IL6R-BP192/IL6R-L (antibody, human IgG1, kappa)
heavy: QVQLQESGPGLVKPSETLSLTCAVSGHSISHDHAWSWVRQPPGEGLEWIGFISYSGITNYNPSLQGRVTISRDNSKNTLYLQMNSLRAEDTAVYYCARSLARTTAMDYWGEGTLVTVSSASTKGPSVFPLAPSSKSTSGGTAALGCLVKDYFPEPVTVSWNSGALTSGVHTFPAVLQSSGLYSLSSVVTVPSSSLGTQTYICNVNHKPSNTKVDKKVEPKSCDKTHTCPPCPAPDLLGGDSVFLFPPKPKDTLMISRTPEVTCVVVDVSDEDGEVKFNWYVDGVEVHNAKTKPREEQDNSTYRVVSVLTVLHQDWLNGKEYKCKVSNKALPKPIEKTISKAKGQPREPQVYTLPPSRDELTKNQVSLTCLVKGFYPSDIAVEWESNGQPENNYKTTPPVLDSDGSFFLYSKLTVDKSRWQQGNVFSCSVMHEALHNHYTQESLSLSP
light: not shown

Legend:
[1] = molecular target: T1, FcγRIa extracellular domain with C-terminal His tag (human, UniProt P12314 16-292); assay: SPR, captured antibody, FcgR analyte
T1 construct: also called FcgRIa
Protocol: (§1) Relative binding activities were calculated for the results of analyzing interactions with the respective FcγRs according to the following method.

[2] = molecular target: T2, FcγRIIb extracellular domain with C-terminal His tag (human, UniProt P31994 43-217); assay: SPR, captured antibody, FcgR analyte
T2 construct: extracellular domain; also called FcgRIIb
T2 sequence (looked up): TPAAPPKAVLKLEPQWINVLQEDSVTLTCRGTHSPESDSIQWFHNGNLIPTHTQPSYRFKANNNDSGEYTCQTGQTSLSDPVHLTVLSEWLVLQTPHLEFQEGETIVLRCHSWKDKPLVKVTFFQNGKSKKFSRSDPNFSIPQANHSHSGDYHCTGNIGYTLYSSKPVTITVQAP
Protocol: as §1

T1 sequence (P12314 16-292): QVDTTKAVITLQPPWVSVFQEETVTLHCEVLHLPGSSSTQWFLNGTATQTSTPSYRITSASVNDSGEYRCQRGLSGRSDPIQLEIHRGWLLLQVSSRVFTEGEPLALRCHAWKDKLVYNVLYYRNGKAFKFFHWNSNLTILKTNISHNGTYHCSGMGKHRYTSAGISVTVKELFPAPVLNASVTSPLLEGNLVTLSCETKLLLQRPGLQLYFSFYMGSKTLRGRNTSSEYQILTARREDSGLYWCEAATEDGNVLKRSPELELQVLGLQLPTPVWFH

| Binder | relative binding activity [1] | relative binding activity [2] |
| --- | --- | --- |
| B1 | 72 relative (IL6R-BF648/IL6R-L = 100) | 137 relative (IL6R-BF648/IL6R-L = 100) |
| B2 | 68 relative (IL6R-BF648/IL6R-L = 100) | 138 relative (IL6R-BF648/IL6R-L = 100) |
| B3 | 91 relative (IL6R-BF648/IL6R-L = 100) | 150 relative (IL6R-BF648/IL6R-L = 100) |
| B4 | 41 relative (IL6R-BF648/IL6R-L = 100) | 137 relative (IL6R-BF648/IL6R-L = 100) |
| B5 | 86 relative (IL6R-BF648/IL6R-L = 100) | 133 relative (IL6R-BF648/IL6R-L = 100) |
| B6 | 64 relative (IL6R-BF648/IL6R-L = 100) | 121 relative (IL6R-BF648/IL6R-L = 100) |
| B7 | 102 relative (IL6R-BF648/IL6R-L = 100) | 147 relative (IL6R-BF648/IL6R-L = 100) |
| B8 | 95 relative (IL6R-BF648/IL6R-L = 100) | 173 relative (IL6R-BF648/IL6R-L = 100) |
| B9 | 96 relative (IL6R-BF648/IL6R-L = 100) | 171 relative (IL6R-BF648/IL6R-L = 100) |
| B10 | 74 relative (IL6R-BF648/IL6R-L = 100) | 179 relative (IL6R-BF648/IL6R-L = 100) |
| B11 | 109 relative (IL6R-BF648/IL6R-L = 100) | 172 relative (IL6R-BF648/IL6R-L = 100) |
